Source: IntAct's records for PubMed 17128263

B1: 1-phosphatidylinositol 4,5-bisphosphate phosphodiesterase gamma-1 (Rattus norvegicus (Rat)), P10686 (parent)
chain: MAGVGTPCANGCGPSAPSEAEVLHLCRSLEVGTVMTLFYSKKSQRPERKTFQVKLETRQITWSRGADKIEGSIDIREIKEIRPGKTSRDFDRYQEDPAFRPDQSHCFVILYGMEFRLKTLSLQATSEDEVNMWIKGLTWLMEDTLQAATPLQIERWLRKQFYSVDRNREDRISAKDLKNMLSQVNYRVPNMRFLRERLTDFEQRSGDITYGQFAQLYRSLMYSAQKTMDLPFLETNTLRTGERPELCQVSLSEFQQFLLEYQGELWAVDRLQVQEFMLSFLRDPLREIEEPYFFLDELVTFLFSKENSVWNSQLDAVCPETMNNPLSHYWISSSHNTYLTGDQFSSESSLEAYARCLRMGCRCIELDCWDGPDGMPVIYHGHTLTTKIKFSDVLHTIKEHAFVASEYPVILSIEDHCSIAQQRNMAQHFRKVLGDTLLTKPVDIAADGLPSPNQLKRKILIKHKKLAEGSAYEEVPTSVMYSENDISNSIKNGILYLEDPVNHEWYPHYFVLTSSKIYYSEETSSDQGNEDEEEPKEASGSTELHSSEKWFHGKLGAGRDGRHIAERLLTEYCIETGAPDGSFLVRESETFVGDYTLSFWRNGKVQHCRIHSRQDAGTPKFFLTDNLVFDSLYDLITHYQQVPLRCNEFEMRLSEPVPQTNAHESKEWYHASLTRAQAEHMLMRVPRDGAFLVRKRNEPNSYAISFRAEGKIKHCRVQQEGQTVMLGNSEFDSLVDLISYYEKHPLYRKMKLRYPINEEALEKIGTAEPDYGALYEGRNPGFYVEANPMPTFKCAVKALFDYKAQREDELTFTKSAIIQNVEKQDGGWWRGDYGGKKQLWFPSNYVEEMINPAILEPEREHLDENSPLGDLLRGVLDVPACQIAIRPEGKNNRLFVFSISMPSVAQWSLDVAADSQEELQDWVKKIREVAQTADARLTEGKMMERRKKIALELSELVVYCRPVPFDEEKIGTERACYRDMSSFPETKAEKYVNKAKGKKFLQYNRLQLSRIYPKGQRLDSSNYDPLPMWICGSQLVALNFQTPDKPMQMNQALFMAGGHCGYVLQPSTMRDEAFDPFDKSSLRGLEPCVICIEVLGARHLPKNGRGIVCPFVEIEVAGAEYDSTKQKTEFVVDNGLNPVWPAKPFHFQISNPEFAFLRFVVYEEDMFSDQNFLAQATFPVKGLKTGYRAVPLKNNYSEDLELASLLIKIDIFPAKENGDLSPFSGTSLRERASDASSQLFHVRAREGSFEARYQQPFEDFRISQEHLADHFDSRERRAPRRTRVNGDNRL
B2: 1-phosphatidylinositol 4,5-bisphosphate phosphodiesterase gamma-1 (Rattus norvegicus (Rat)), P10686 (parent)
chain: B1 chain
partner: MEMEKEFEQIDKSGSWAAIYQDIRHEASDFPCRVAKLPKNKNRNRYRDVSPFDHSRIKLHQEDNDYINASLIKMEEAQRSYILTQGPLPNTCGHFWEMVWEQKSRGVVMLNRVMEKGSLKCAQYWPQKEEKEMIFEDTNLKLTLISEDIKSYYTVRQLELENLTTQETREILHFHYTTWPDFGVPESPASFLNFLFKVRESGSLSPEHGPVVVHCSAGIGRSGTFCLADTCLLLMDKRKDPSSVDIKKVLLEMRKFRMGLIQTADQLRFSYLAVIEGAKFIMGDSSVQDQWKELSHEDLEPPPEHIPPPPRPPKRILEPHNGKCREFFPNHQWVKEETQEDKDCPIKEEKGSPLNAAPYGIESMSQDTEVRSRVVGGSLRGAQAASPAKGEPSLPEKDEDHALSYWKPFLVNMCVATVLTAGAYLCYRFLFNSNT

Variants of: B1
Conditions: with jak2_mouse Jak2, Q62120

Variant | effect of a mutation on the interaction
R586K | disrupting interaction

Variants of: B2
Conditions: with ptn1_human PTPN1, P18031

Variant | effect of a mutation on the interaction
P842K | disrupting interaction

Variants of: B2
Conditions: with ptn1_human PTPN1, P18031
Remark: another data set of the same source

Variant | effect of a mutation on the interaction
R586K | disrupting interaction
